Measurements as given in paper PMC11983102, “Conjugation to a transferrin receptor 1-binding Bicycle peptide enhances ASO and siRNA potency in skeletal and cardiac muscles” (Nucleic Acids Research, 2025).

Target: human His6-TfR1, P02786
Assay: SPR
Conditions: chain shown with the change

human His6-TfR1, P02786, sequence (P02786 89-760): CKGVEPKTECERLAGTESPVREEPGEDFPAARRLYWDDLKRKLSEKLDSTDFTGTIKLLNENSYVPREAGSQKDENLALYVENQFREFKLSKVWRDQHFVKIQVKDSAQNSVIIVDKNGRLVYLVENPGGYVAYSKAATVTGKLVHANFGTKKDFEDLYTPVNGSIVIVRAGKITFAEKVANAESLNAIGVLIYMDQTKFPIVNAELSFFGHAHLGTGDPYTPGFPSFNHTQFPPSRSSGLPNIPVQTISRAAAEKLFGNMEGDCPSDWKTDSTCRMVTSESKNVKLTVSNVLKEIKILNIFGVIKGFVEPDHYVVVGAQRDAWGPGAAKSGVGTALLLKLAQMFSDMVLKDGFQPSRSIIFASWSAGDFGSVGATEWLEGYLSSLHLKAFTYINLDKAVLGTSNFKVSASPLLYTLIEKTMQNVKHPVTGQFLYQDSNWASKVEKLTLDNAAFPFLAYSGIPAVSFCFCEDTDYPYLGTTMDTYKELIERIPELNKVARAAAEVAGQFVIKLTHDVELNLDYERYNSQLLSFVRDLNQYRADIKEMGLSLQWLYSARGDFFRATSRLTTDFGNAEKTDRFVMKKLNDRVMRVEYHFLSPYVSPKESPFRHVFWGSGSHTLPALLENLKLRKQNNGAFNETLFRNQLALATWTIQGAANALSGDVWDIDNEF

CSPDAHLGCISYC [BCY15468 Ni:A del; Ti:A del; Nii:Ac (N-terminal acetyl cap)] showed a Kd of 46 nM.
